From publication PMC9808565

Biological target: human ACE2 protein (hACE2), recombinant, His-tagged, Met1-Ser740 (human) (UniProt Q9BYF1)
Experiment: ITC

Sequence of UniProt Q9BYF1 (Q9BYF1 18-740): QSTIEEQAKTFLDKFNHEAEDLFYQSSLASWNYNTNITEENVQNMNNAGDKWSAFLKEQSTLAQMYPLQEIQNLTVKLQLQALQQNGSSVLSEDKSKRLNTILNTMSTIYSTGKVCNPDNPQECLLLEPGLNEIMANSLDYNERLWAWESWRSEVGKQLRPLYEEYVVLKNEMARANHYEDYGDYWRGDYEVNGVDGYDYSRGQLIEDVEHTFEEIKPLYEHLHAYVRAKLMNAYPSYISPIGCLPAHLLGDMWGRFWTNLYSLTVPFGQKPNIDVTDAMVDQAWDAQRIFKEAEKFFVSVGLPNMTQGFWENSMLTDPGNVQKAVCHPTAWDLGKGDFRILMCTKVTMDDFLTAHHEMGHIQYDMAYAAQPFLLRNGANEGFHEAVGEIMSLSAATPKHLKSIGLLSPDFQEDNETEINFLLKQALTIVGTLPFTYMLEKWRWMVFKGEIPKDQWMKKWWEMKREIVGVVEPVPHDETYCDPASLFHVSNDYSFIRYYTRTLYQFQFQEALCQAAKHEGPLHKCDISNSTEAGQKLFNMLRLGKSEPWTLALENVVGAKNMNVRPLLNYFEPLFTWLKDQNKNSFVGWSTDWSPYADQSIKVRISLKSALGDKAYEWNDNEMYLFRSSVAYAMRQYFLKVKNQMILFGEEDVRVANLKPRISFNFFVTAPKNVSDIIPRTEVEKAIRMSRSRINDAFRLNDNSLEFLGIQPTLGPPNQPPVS

SARS-CoV-1 spike RBD (RBD^CoV1), Arg306-Phe527, His-tagged (domain or fragment)
Kd: 146 nM | dH: -10.5 kcal/mol | stoichiometry N: 1.03
